The record followed here is US20170081417A1 (Kyowa Kirin, published 2017).

A word on the IC50: it is the concentration needed to halve the response being measured. A high value points to a need for much substance. In general, Kd refers to a measure of binding affinity in units of concentration. Read a high Kd as lower affinity.

The target of assay [1] is T1, human OX40 (CD134), full length, expressed on cells (activated human T cells); EL4-OX40 and CHO-OX40 … (human, UniProt P43489 29-277).
T1 sequence: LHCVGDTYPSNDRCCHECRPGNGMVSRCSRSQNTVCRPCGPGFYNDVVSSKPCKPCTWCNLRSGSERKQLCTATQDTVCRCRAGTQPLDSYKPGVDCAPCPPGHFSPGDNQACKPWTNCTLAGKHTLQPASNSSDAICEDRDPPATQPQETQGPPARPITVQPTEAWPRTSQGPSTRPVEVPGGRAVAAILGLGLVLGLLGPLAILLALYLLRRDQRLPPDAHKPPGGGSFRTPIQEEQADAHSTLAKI
In words: cell-based or functional assay.

Assay [2] addresses T2, human OX40 extracellular domain fused to the Fc portion of human IgG1 (hOX40:hFc) (human).
T2 construct: Made in Tn5 insect cells; also called OX40-hIgG1; human OX40:hIgG1 fusion protein
In words: ELISA, blocking of OX40L-FLAG binding to coated hOX40:hFc. The method, then: The ability of 112F32, 112V8, 112Y131, 112Y55, and 112Z5 to block soluble hOX40L binding to coated hOX40:hFc fusion protein was tested using an ELISA protocol (FIG. 5A, Table 3). The plates were coated with hOX40:hFc and after blocking non-specific sites the anti-OX40 antibodies were allowed to bind. Without washing OX40L-FLAG was added to the wells. Bound ligand was detected with anti-FLAG-HRP secondary antibody. Percent inhibition was determined using the following formula (100−(OD sample/OD maximum OX40L binding))*100. 112V8, 112Y55, and 112Y131 prevented 85% of the binding of soluble OX40L to hOX40:hFc. 112F32 prevented approximately 70% of the binding of soluble hOX40L to hOX40:hFc and 112Z5 blocked 67% of the maximal binding.

Assay [3] has as its target T1, human OX40 (CD134), full length, …. In words: flow cytometry titration on activated human T cells, anti-human IgG-PE. The method, then: (§1) Following twenty minute incubation on ice, the cells were washed once and fixed ten minutes with 1% paraformaldehyde. After a final wash the cells were resuspended in staining buffer and the samples were acquired using FACScan or FACS Calibur flow cytometers (Becton Dickinson Biosciences, Palo Alto, Calif.), and the data were analyzed using Cellquest (Becton Dickinson Biosciences) or Flow Jo (TreeStar, Inc., San Carlos, Calif.) software. The activated T cells were also stained with mouse anti-human OX40 antibody L106 (Becton Dickinson), which was directly conjugated to phycoerythrin or whose binding was detected with anti-mouse IgG-PE (Southern Biotechnology Associates.) OX40L Blocking Assays: To determine if the anti-human OX40 antibodies could block OX40L binding to soluble OX40 both ELISA and flow cytometric protocols were used. In the ELISA 96 well Nunc flat bottom plates were coated with recombinant soluble hOX40:hFc at 2 μg/ml in carbonate buffer (pH9.4) for one hour at 37° C. The plates were washed with PBS/0.1% Tween 20 and Superblock (Pierce) was added to the wells to block non-specific binding. The test antibodies were diluted to 1 μg/ml in PBS/Tween and added to the plates. After one hour incubation at 37° C., FLAG tagged recombinant soluble human OX40L (Alexis Biochemicals, San Diego, Calif.) was added to the appropriate wells without washing out the anti-OX40 antibodies. Following one hour incubation, the plates were washed and an anti-FLAG-peroxidase conjugated antibody (Sigma) was added to the wells for one hour at 37° C. The TMB substrate was added, after ten minutes the reaction was stopped with H₂SO₄, and the results were read at 450 nm using a microplate reader. In the flow cytometric assay, human CD4+ T cells were purified and activated with PHA+IL2 for two days. The cells were washed and resuspended in staining buffer and then incubated with increasing amounts of human anti-human OX40 antibodies for twenty minutes on ice, from 0.005-50 μg/ml. Soluble recombinant OX40L-FLAG was then added to the cells. The cells were washed and incubated with anti-FLAG conjugated to PE (Sigma). After another wash, the cells were fixed with 1% paraformaldehyde and analyzed on a FACScan or FACScalibur.

The target is the same in assay [4]. The assay can be described thus: flow cytometry, blocking of OX40L-FLAG binding to activated human T cells.
From the text: as §1, with “The” for “Following twenty minute incubation on ice, the cells were washed once and fixed ten minutes with 1% paraformaldehyde. After a final wash the cells were resuspended in staining buffer and the samples were acquired using FACScan or FACS Calibur flow cytometers (Becton Dickinson Biosciences, Palo Alto, Calif.), and the data were analyzed using Cellquest (Becton Dickinson Biosciences) or Flow Jo (TreeStar, Inc., San Carlos, Calif.) software. The”
Slightly different results were obtained when a flow cytometric based assay was used to monitor blockade of soluble OX40L binding to activated human T cells that express OX40 (FIG. 5B). Activated human T cells were labeled with anti-OX40 antibodies followed by soluble flag tagged-human OX40L. Binding of OX40L was detected with anti-FLAG-PE antibody. Percent inhibition was determined using the same formula, i.e., (100−(sample/maximum binding))*100.
On the technique in general: Flow cytometry measures light scatter and fluorescence of single cells or particles in a stream.

Positions count from the first letter of the chain named.

T2 sequence (chain, as listed by the source limits assumed): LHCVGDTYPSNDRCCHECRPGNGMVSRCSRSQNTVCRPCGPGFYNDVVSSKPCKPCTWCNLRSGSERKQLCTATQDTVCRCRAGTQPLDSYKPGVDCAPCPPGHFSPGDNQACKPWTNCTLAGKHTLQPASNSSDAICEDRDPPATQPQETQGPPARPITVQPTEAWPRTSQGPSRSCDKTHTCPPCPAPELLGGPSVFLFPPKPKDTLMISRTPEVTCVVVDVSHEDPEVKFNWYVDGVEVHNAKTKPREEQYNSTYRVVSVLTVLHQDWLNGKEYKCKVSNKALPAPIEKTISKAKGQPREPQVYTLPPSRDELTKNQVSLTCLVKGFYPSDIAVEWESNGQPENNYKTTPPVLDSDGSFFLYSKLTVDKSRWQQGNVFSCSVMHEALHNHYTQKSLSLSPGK

B1: 112Y55 human anti-human OX40 monoclonal antibody (hybridoma ATCC No. PTA-7220) (antibody, V domains shown)
VH: QITLKESGPTLVKPTQTLTLSCTFSGFSLSTSGVGVGWIRQPPGKALEWLALIHWDDAERYSPSLKSRLTITKDTSKNQVVLTMTNMDLVDTATYYCAHTRGAFDIWGQGTMVTVSS
VL: EIVLTQSPGTLSLSPGERAILSCRASQSVSSSFLAWYQQKPGQAPRLLIYGAFSRATGIPDRFSGSGSGTDFTLTISRLEPEDFAVYYCQQYDSSRTFGQGTKVEIK
B1: in assay [1], the “ADCC % Lysis at 10 µg/ml” value worked out at 54.2%. Further, the half-maximal inhibitory concentration (IC50) in assay [2] stood at 0.073 µg/mL. Moreover, in assay [3], the “BMAX Geo Mean” value is 162 geometric mean fluorescence and binding was characterised by a dissociation constant (Kd) of 14 nM. For the same molecule, in assay [4], the IC50 is 0.9 µg/mL.

B2: 112Y131 human anti-human OX40 monoclonal antibody (hybridoma ATCC No. PTA-7218) (antibody, V domains shown)
VH: B1 VH with S21T, H54Y, A58H, E59S, R60P, L89P, H99R
VL: EIVLTQSPATLSLSPGERATLSCRASQGVSSYLAWYQQKPGQAPRLLIYDASNRATGIPARFSGSGPGTDFTLTISSLEPEDFAVYYCQQRSNWHPTFGQGTKVEIK
Take B2: the “ADCC % Lysis at 10 µg/ml” value in assay [1] came out at 18%. For the same molecule, in assay [2], the IC50 worked out at 0.069 µg/mL. In assay [3], the “BMAX Geo Mean” value is 171 geometric mean fluorescence and binding was characterised by a dissociation constant (Kd) of 25 nM. Moreover, the IC50 in assay [4] is 0.91 µg/mL.
